# Test results from article PMC4398509, “A new regulatory mechanism for bacterial lipoic acid synthesis”.
# B1: lipBA_she (dsDNA)
# DNA 1: CAAGGTCATAAAGTGTGATCTATCTTACATTTATGGCCAAGAG
# DNA 2: CTCTTGGCCATAAATGTAAGATAGATCACACTTTATGACCTTG
# B2: fadD_ec (dsDNA)
# DNA 1: GTAAAGATAAAAATAAATAGTGACGCGCTTCGCAACCTTTTCGTTGGG
# DNA 2: CCCAACGAAAAGGTTGCGAAGCGCGTCACTATTTATTTTTATCTTTAC
# B3: ybeD_yp (dsDNA)
# DNA 1: ATTGGCCCCATATTGTGATTAATCTTATATTGCAAATAAGCT
# DNA 2: AGCTTATTTGCAATATAAGATTAATCACAATATGGGGCCAAT
# B4: lipA_ec (dsDNA)
# DNA 1: ACGGAGTAATAGATGTTATCCGTAATGCATTTTGAAAAAGTA
# DNA 2: TACTTTTTCAAAATGCATTACGGATAACATCTATTACTCCGT
# B5: ybeD_ec (dsDNA)
# DNA 1: AAACACTTGAAAGTGTAATTTCCGTCCCCATATACTAAGCAT
# DNA 2: ATGCTTAGTATATGGGGACGGAAATTACACTTTCAAGTGTTT
# B6: ybeD_es (dsDNA)
# DNA 1: GAACACTTGAAAGTGTGATTTCCATCCCCATATACTAGGTAT
# DNA 2: ATACCTAGTATATGGGGATGGAAATCACACTTTCAAGTGTTC
# B7: ybeD_kp (dsDNA)
# DNA 1: GAACACTTGAAAGTGTGATTTCCATCCCCATATACTATTCAT
# DNA 2: ATGAATAGTATATGGGGATGGAAATCACACTTTCAAGTGTTC
# B8: ybeD_st1 (dsDNA)
# DNA 1: GAACGCTTGAAAGTGTGATTTTCGTCCCCATATACTATGCAT
# DNA 2: ATGCATAGTATATGGGGACGAAAATCACACTTTCAAGCGTTC
# B9: ybeD_st2 (dsDNA)
# DNA 1: CTGTGGCGGGAGTTGTTATTTTTTTTACGTAATGCCGGAGCT
# DNA 2: AGCTCCGGCATTACGTAAAAAAAATAACAACTCCCGCCACAG
# Key:
# [1] = biological target: CRP_she (cAMP receptor protein) (UniProt Q8EJ49 1-211); assay: EMSA; cAMP (20 pmol); EMSA: 0.2 pmol DIG probe, CRP (2 pmol in Fig. 6), 20 pmol cAMP, Roche binding buffer (composition and pH not given), 20 uL (15 uL in Fig. S2), room temperature; settings: protein: recombinant; tags: N-terminal His6 (pET28a); chain copies: 2; label: DIG-ddUTP 3' end (terminal transferase); blunt
# [2] = biological target: CRP_ec (cAMP receptor protein) (Escherichia coli, UniProt P0ACJ8 1-210); assay: as above; settings: protein: recombinant; tags: His6 (pET28 construct, nickel purified); chain copies: 2; label: DIG-ddUTP 3' end (terminal transferase); blunt
Binder,binding result [1],binding result [2]
B1,binds,binds
B2,binds,binds
B3,,no binding
B4,,no binding
B5,,no binding
B6,,binds
B7,,binds
B8,,binds
B9,,no binding
